Reference: publication PMC12719649

Legend:
[1] = molecular target: MED14-NTD+H+M+MED26, 16-subunit recombinant human core Mediator with f:MED14-NTD (1-760) (human) (UniProt O60244)
[2] = molecular target: MED14-NTD+H+M+MED26, 16-subunit recombinant human core Mediator with f:MED14-NTD (1-760) (human) (UniProt O60244); assay: co-IP; competition: MED14-NTD+H+M+MED26 on anti-MED30 beads with Pol II and recombinant RPB1 as competitor, equal amounts of His:RPB1 or up to 10-fold more f:RPB1 or f:ΔCTD RPB1 than Pol II; western blot

Substance	basal in vitro transcription from AdML core promoter templates in Mediator-depleted HeLa NE, 50 nM complex, against Mediator-deficient controls [1]	percent reversal of the MED14-NTD+H+M+MED26-Pol II interaction at a 1:1 ratio [2]
RNA polymerase II (Pol II), Gdown1-free, purified from HeLa nuclear extract (from UniProt P24928 1-1970; P30876 1-1174; P19387 1-275; O15514 1-142; P19388 1-210; P61218 1-127; P62487 1-172; P52434 1-150; P36954 1-125; P62875 1-67; P52435 1-117; P53803 1-58) (complex)	> 15 fold	
recombinant His:RPB1 (from UniProt P24928 1-1970) (natural protein)		< 50%
